This is an account of results in patent US20220396612A1 (UNIVERSIT DE TOURS, published 2022).

Test [1] addresses T1, virus-like particles (VLPs) of BK polyomavirus VP-1 protein, serotype Ib2 (BK virus (BKPyV), serotype Ib2, PA …, UniProt P03088 1-362).
T1 construct: native VLPs; also the immunogen; also called VLP Ib2; BK Ib2
T1 chain: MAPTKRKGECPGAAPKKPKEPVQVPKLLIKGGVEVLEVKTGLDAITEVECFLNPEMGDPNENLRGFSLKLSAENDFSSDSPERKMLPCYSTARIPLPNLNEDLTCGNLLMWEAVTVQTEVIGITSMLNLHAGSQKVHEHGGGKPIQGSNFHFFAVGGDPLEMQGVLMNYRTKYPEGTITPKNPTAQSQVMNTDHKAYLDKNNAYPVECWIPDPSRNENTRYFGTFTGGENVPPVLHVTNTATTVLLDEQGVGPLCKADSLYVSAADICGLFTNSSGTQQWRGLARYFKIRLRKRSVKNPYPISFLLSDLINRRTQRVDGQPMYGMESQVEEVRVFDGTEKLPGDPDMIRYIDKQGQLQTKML
Description: ELISA on coated VLP; supernatant 1/10. On the technique in general: ELISA stands for enzyme-linked immunosorbent assay.
Description: (§1) To do this, the VLPs produced were deposited at a concentration of 1 μg/mL in PBS and incubated overnight at +4° C. The wells were then blocked for 1 h at +37° C. with a PBS/FCS (phosphate-buffered saline/fetal calf serum) mixture. After dilution in a dilution buffer containing FCS, PBS and Tween® 20, the various hybridoma culture supernatants were added for 1 h at +37° C. The wells were washed four times in a row with Wash Buffer and a secondary anti-mouse antibody coupled to peroxidase was added to the 1:2000 dilution for 1 h at +37° C. The wells were washed four more times and the substrate (OPD (ortho phenylene diamine)+H₂O₂) was added for 30 min at room temperature. A stop solution (H₂SO₄ 4N) was then added and each well was read by measuring the absorbance at 492 nm with a spectrophotometer. The value obtained for the average of the control wells (PBS in the first step) is subtracted from the optical density values obtained for each well.

For test [2], the target named is T2, virus-like particles (VLPs) of BK polyomavirus VP-1 protein, serotype IV (BK virus (BKPyV), serotype IV, UniProt P14996 1-362).
T2 construct: native VLPs; also called VLP IV
T2 chain: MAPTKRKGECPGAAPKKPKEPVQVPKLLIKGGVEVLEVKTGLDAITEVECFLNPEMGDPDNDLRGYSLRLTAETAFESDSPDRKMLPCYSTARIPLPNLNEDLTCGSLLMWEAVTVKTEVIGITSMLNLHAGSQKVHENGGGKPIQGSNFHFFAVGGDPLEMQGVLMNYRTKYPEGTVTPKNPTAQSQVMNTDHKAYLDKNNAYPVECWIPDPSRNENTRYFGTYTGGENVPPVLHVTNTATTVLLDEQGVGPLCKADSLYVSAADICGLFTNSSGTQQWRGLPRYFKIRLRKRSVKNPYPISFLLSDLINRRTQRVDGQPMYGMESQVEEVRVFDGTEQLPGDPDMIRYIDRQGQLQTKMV
Description: ELISA on coated VLP; supernatant 1/10.
Description: as §1

Test [3] addresses T3, virus-like particles (VLPs) of BK polyomavirus VP-1 protein, serotype II (BK virus (BKPyV), serotype II, UniProt P14996 1-362).
T3 construct: native VLPs; also called VLP II
T3 chain: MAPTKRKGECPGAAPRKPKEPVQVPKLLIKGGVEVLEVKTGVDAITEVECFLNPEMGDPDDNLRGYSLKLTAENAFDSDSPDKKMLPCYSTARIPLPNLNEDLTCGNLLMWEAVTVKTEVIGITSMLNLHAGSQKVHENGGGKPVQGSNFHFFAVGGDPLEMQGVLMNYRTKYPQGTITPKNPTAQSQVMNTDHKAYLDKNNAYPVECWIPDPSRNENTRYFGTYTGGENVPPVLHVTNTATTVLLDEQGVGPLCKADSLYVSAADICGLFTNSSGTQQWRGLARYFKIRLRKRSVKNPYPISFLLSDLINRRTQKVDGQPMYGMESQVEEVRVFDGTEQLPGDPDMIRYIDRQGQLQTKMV
The test can be described thus: ELISA on coated VLP; supernatant 1/10.
Description: as §1

The target in test [4] is T4, virus-like particles (VLPs) of BK polyomavirus VP-1 protein, serotype Ia (BK virus (BKPyV), serotype Ia, UniProt P03088 1-361).
T4 construct: self-assembled native VLPs coated on ELISA plates; also called VLP Ia; BKV VP-1, serotype Ia
T4 chain: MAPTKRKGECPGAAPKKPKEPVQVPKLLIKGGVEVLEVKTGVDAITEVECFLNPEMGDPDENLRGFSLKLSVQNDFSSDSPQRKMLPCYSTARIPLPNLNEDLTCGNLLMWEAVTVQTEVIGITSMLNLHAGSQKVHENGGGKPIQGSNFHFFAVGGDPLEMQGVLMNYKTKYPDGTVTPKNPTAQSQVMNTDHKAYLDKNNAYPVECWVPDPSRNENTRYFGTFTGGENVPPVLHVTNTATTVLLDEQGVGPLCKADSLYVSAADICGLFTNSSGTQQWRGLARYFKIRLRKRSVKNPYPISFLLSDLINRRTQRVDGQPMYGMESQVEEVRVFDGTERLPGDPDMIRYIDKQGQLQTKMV
The test can be described thus: ELISA on coated VLP; supernatant 1/10.
Description: as §1

In test [5] the target is T1, virus-like particles (VLPs) of BK …. The test can be described thus: ELISA on coated VLP; supernatant 1/20 480.
Description: as §1
For test [6] the target is unchanged. Description: ELISA on coated VLP; supernatant 1/320.
Description: as §1
The target of test [7] is T2, virus-like particles (VLPs) of BK …. Description: ELISA on coated VLP; supernatant 1/320.
Description: as §1
Test [8] has as its target T3, virus-like particles (VLPs) of BK …. Description: ELISA on coated VLP; supernatant 1/320.
Description: as §1
Test [9] has as its target T4, virus-like particles (VLPs) of BK …. Description: ELISA on coated VLP; supernatant 1/320.
Description: as §1
Test [10] deals with T1, virus-like particles (VLPs) of BK …. The test can be described thus: ELISA on coated VLP; supernatant 1/20.
Description: as §1
In test [11] the target is T2, virus-like particles (VLPs) of BK …. The test can be described thus: ELISA on coated VLP; supernatant 1/20.
Description: as §1
The target of test [12] is T3, virus-like particles (VLPs) of BK …. Description: ELISA on coated VLP; supernatant 1/20.
Description: as §1
Test [13] deals with T4, virus-like particles (VLPs) of BK …. The test can be described thus: ELISA on coated VLP; supernatant 1/20.
Description: as §1

B1: monoclonal antibody ‘F6’ secreted by clone BK6A2F6 (antibody)
heavy: EVQLQQSGPELVKPGASVKISCKASGYSFTGYFMNWVKQSHGKSLEWIGRINPYNGDTFYNQKFKGKATLTVDKSSSTAHMELLSLTSEDSAVYYCGSYYYGDYFDYWGQGTTLTVSSAKTTPPSVYPLAPGSAAQTNSMVTLGCLVKGYFPEPVTVTWNSGSLSSGVHTFPAVLQSDLYTLSSSVTVPSSTWPSETVTCNVAHPASSTKVDKKIVPRDCGCKPCICTVPEVSSVFIFPPKPKDVLTITLTPKVTCVVVDISKDDPEVQFSWFVDDVEVHTAQTQPREEQFNSTFRSVSELPIMHQDWLNGKEFKCRVNSAAFPAPIEKTISKTKGRPKAPQVYTIPPPKEQMAKDKVSLTCMITDFFPEDITVEWQWNGQPAENYKNTQPIMDTDGSYFVYSKLNVQKSNWEAGNTFTCSVLHEGLHNHHTEKSLSHSPGK
light: […]
Regarding B1, the “OD 492 nm” value was 2.7 OD in [1]; 3.25 OD in [2]; 3 OD in test [3]; 3.08 OD in test [4]; 0.11 OD in test [5]; 0.29 OD in [6]. The “OD 492 nm” value in test [7] was found to be 3.16 OD; in [8], 0.16 OD; in test [9] it was 3.16 OD; in test [10] it was 1.22 OD; in [11], 3.16 OD; in test [12], 1.65 OD. Further, the “OD 492 nm” value in test [13] amounted to 3.23 OD.

B2: monoclonal antibody ‘H6’ secreted by clone BK6A2H6 (antibody, V domains shown)
VH: EVQLQQSGPELVKPGASVKISCKASGYSFTGYFMNWVKQSHGKSLEWIGRINPYNGDTFYNQKFKGKATLTVDKSSSTAHMELLSLTSEDSAVYYCGSYYYGDYFDYWGQGTTLTVSS
VL: SIVMTQIPKFLLVSEGDRVTITCKASQSVSNDVAWYQQKSGQSPKLLIYYASNRYTGVPDRFTGSGYGTDFTFTISTVQAEDLAVYFCQQDYSSPLTFGAGTKLELKR
On to B2, for which the “OD 492 nm” value is 1.71 OD in [1]; 3.29 OD in test [2]; 2.96 OD in test [3]; 2.99 OD in test [4]; 0.06 OD in [5]; 0.29 OD in [6]. Moreover, the “OD 492 nm” value in test [7] turned out to be 2.66 OD; in test [8], 0.13 OD; in test [9], 3.03 OD; in test [10] it was 0.82 OD; in [11] it was 3.21 OD; in [12] it was 0.86 OD. In addition, in [13], the “OD 492 nm” value was found to be 3.06 OD.
